In US20210198377A1 (XDCEXPLORER SHANGHAI, published 2021):

T1: human TPBG-hFc (human, UniProt Q13641 32-355)
T1 construct: also called immunogen A; hFc tagged TPBG protein; not shown: The human IgG Fc fragment of the pCpC vector (Invitrogen V044-50) and any linker to it
T1 sequence: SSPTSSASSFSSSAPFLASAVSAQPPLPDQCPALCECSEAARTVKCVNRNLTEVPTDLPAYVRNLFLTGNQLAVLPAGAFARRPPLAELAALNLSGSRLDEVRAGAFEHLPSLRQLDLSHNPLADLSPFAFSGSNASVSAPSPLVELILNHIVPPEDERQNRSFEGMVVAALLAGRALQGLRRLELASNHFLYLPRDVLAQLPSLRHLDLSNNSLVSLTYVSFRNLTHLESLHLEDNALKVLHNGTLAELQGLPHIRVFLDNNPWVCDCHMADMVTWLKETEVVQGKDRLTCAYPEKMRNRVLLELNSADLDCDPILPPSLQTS

T2: biotinylated recombinant TPBG protein (Homo sapiens (Human), UniProt Q13641 32-355, Biotinylated; the number and positions of the biotin labels are not stated and the letters do not carry them.)
T2 sequence: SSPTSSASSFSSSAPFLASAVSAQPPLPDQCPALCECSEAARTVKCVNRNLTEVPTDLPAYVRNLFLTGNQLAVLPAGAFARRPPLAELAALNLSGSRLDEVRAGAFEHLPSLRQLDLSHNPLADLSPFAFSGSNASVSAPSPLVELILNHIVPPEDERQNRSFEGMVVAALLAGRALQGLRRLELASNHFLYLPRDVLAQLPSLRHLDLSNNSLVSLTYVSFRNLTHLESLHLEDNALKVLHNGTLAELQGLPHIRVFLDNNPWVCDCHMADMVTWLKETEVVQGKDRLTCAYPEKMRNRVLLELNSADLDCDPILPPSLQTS


Experiments:
[1] = target: T1, human TPBG-hFc; test: ELISA, coated human TPBG-hFc 1.0 ug/mL; antibody 2 nM
Procedure: (§1) The purified immunogen A (as for its method of preparation please refer to step 1 in Example 1) diluting with PBS to a final concentration of 1.0 μg/mL was aliquoted into a 96-well ELISA plate at 100 μL per well, and sealed with a parafilm and incubated at 4° C. overnight. The plate was washed twice with plate washing buffer (PBS containing 0.01% (v/v) Tween 20), and blocked with blocking buffer (PBS containing 0.01% (v/v) Tween 20 and 1% (w/w) BSA) at room temperature for 2 h. The blocking buffer was discarded, and 100 μL per well of the purified antibody obtained from Embodiment 2 was added. After incubating at 37° C. for 2 h, the plate was washed for three times with plate washing buffer (PBS containing 0.01% (v/v) Tween 20). HRP (horseradish peroxidase)-labeled secondary antibody (purchased from Sigma) was added and incubated at 37° C. for 2 h, and the plate was washed for three times using plate washing buffer (PBS containing 0.01% (v/v) Tween 20). 100 μL of TMB substrate was aliquoted into each well, incubated at room temperature for 30 min, and 100 μL of stop buffer (1.0N HCl) per well was subsequently added. A₄₅₀ₙₘ values were read using the ELISA plate reader (SpectraMax 384plus purchased from Molecular Device), and the results were shown in FIG. 6 and table 6. […] In Table 6 the IgG control herein is a mice IgG control, the data in the Table are OD₄₅₀ₘₙ values, and Blank means the OD₄₅₀ₘₙ value when there is only PBS buffer in the plate.

[2] = target: T1, human TPBG-hFc; test: ELISA, coated human TPBG-hFc 1.0 ug/mL; antibody 0.0002 nM
Procedure: as §1

[3] = target: T2, biotinylated recombinant TPBG protein; test: competitive ELISA; row antibody 5 ug/mL; competitor: coated 52C9E9F6
Procedure: (§2) The purified antibodies to be tested were diluted to 1 μg/mL using PBS, and coated with high-adsorption of 96-well microplates at […]. After overnight coating at 4[…], 250 μL of blocking buffer (PBS containing 0.01% (v/v) Tween20 and 1% (w/w) BSA) was added to block coating at room temperature for 1 h, and 0.05 μg/mL of biotinylated recombinant TPBG protein was added to each well. Meanwhile, 5 μg/mL final concentration of competitive antibodies, i.e. the purified antibodies obtained from Embodiment 2 with the clone number of 12B12C7C3, 5G4H10G5, 37H9C5G2, 39A11G5F2, 52C9E9F6, 28D4E6A9, 36A10D8B12, 99E12C7H1, 103E2E9C2 and 106D5G3D10 were added and incubated at 25-37° C. for 1-2 h. The plates were washed three times with plate-washing buffer (PBS containing 0.01% (v/v) Tween20) and HRP (horseradish peroxidase)-labeled streptavidin (purchased from Sigma) was added. After incubating at 37° C. for 0.5 h, the plates were washed three times with plate-washing buffer (PBS containing 0.01% (v/v) Tween20), and 100 μL of TMB substrate was added to each well and the plates were further incubated at room temperature for 30 min prior to adding 100 μL of stop buffer (1.0N HCl) to each well. A₄₅₀ₙₘ values were read using an ELISA microplate reader (SpectraMax 384plus purchased from Molecular Device) and results were shown in FIG. 6. The higher the values of the competition rate, the closer the antigen surface of the two antibodies are.

[4] = target: T2, biotinylated recombinant TPBG protein; test: competitive ELISA; row antibody 5 ug/mL; competitor: coated 103E2E9C2
Procedure: as §2

[5] = target: T2, biotinylated recombinant TPBG protein; test: competitive ELISA; row antibody 5 ug/mL; competitor: coated 12B12C7C3
Procedure: as §2

[6] = target: T2, biotinylated recombinant TPBG protein; test: competitive ELISA; row antibody 5 ug/mL; competitor: coated 39A11G5F2
Procedure: as §2

[7] = target: T2, biotinylated recombinant TPBG protein; test: competitive ELISA; row antibody 5 ug/mL; competitor: coated 106D5G3D10
Procedure: as §2

Row | OD450nm [1] | OD450nm [2] | competition rate [3] | competition rate [4] | competition rate [5] | competition rate [6] | competition rate [7] | Binder
1 | 2.64 OD450nm | 0.1 OD450nm | 0% | 88% | 24% | 0% | 5% | 28D4E6A9 (antibody, V domains shown, Mouse hybridoma antibody purified from culture supernatant; also called TPBG antibody; lead antibody) VH: DVQLVESGGGLVRPGGSLKLSCAASGFTFSNYVMSWARQSPEKRLEWVAEISTGGSHTYYSDTVTGRFTISRDNAKKALYLEMSSLRSEDTAIYYCIMFYYGSSYSMDYWGQGTSVTVSS VL: DIQMTQSTSSLSASLGDRITISCRASQDIRNYLNWYQQKPDGTVKLLIYHTSRLHSGVPSRFSGSGSGTDYSLTISNLEQEDIATYFCQQGDTLPLTFGAGTRLELK
2 | 2.81 OD450nm | 0.11 OD450nm | 0% | 0% | 95% | 1% | 94% | 106D5G3D10 (antibody, V domains shown, Mouse hybridoma antibody purified from culture supernatant; also called TPBG antibody; lead antibody) VH: EVQLVESGGGLVKPGGSLKLSCAASGFTFSDYGMHWVRQAPEKGLEWVGYISSGTYVVYYADTVKGRFTISRDNAKNTLFLQMTSLRSEDTAIYYCSTYGSNPFDYWGQGTTLTVSS VL: QLVLTQSPAIMSASPGEKVTITCSATSSVSSMHWFQQKPVTSPKLWIYSTSNLASGVPTRFSGSGSGTSYSLTISRMEAEDAATYYCQQRSGYPPIFTFGSGTKLEIK
3 | 2.52 OD450nm | 0.09 OD450nm | 5% | 38% | 6% | 3% | 4% | 37H9C5G2 (antibody, V domains shown, Mouse hybridoma antibody purified from culture supernatant; also called TPBG antibody; lead antibody) VH: QVQLQQSDAELVRPGASVKMSCKVSGYTFTDHTIHWMKQRPEQGLEWIGYIYPRDGSGTYNEKFKGKATLTADKSSSTAYMQLNSLTSEDSAVYFCARDGSSHYWYFDVWGTGTTVTVSS VL: DIQMTQSPASLSASVGETVTITCRASEIIYNYLAWYQQKQGKSPQLLVYNAKTLAEGVPSRFSGSYSGTQFSLNINSLQSEDFGIYYCQHHHDTPLTFGAGTKLDLK
4 | 2.84 OD450nm | 0.1 OD450nm | 4% | 0% | 97% | 0% | 96% | 12B12C7C3 (antibody, V domains shown, Mouse hybridoma antibody purified from culture supernatant; also called TPBG antibody; lead antibody) VH: DVQLVESGGGLVQPGGSRKLSCAASGFTFSNFGMHWVRQAPEKGLEWVAYISSGSTSFYYADTVKGRFTISRDNPKNTLFLQMTSLRSEDTAMYYCSRTNSLLRGFFDAWGAGTTVTVSS VL: DIVLTQSPASLAVSLGQRATISCRASQSVSSSSYTYLHWYQQKPGQPPKLLIKSASNLESGVPARFSGTGSGTDFTLNIHPVEEEDTATYYCQHSWEIPLTFGAGTKLELK
5 | 2.68 OD450nm | 0.08 OD450nm | 19% | 2% | 9% | 10% | 3% | 5G4H10G5 (antibody, V domains shown, Mouse hybridoma antibody purified from culture supernatant; also called TPBG antibody; lead antibody) VH: EVQLVESGGDLVQPGGSLKLFCAASGFTFSTYGLSWVRQTPDKRLELVATITNNDGSAYYPDSVKGRFTISRDKAKNTLFLQMTSLKSEDTAMYYCARETGFGSSYLFDYWGQGTLVTVSA VL: NIVMTQTPKFLLVSAGDRVTITCKASQSVSNDVAWYQQKPGQSPKLLIYFATNRYTGVPNRFTGSGYGTEFTFTISSVQAEDLAVYFCQQDYSSPTFGGGTKLEIK
6 | 2.43 OD450nm | 0.09 OD450nm | 95% | 0% | 9% | 96% | 4% | 39A11G5F2 (antibody, V domains shown, Mouse hybridoma antibody purified from culture supernatant; also called TPBG antibody; lead antibody) VH: QVQLQQSGAELMKPGASMRLSCKATGYTFTGYWLEWIKRRPGHGLEWIGEILPGRGSTNYNEKFKGKATFTAETSSNTAYMQLTSLTTEDSAIYYCARGGRDFDNWGQGTTLTVSS VL: DIQMTQSTSSLSASLGDRVTISCSASQGINNHLNWYQQKPDGTVKLLIYYTSSLHSGVPSRFSGSGSGTDYSLTISNLEPEDIAIYYCQQFSKLPYTFGGGTKVEMK
7 | 2.68 OD450nm | 0.09 OD450nm | 97% | 0% | 27% | 97% | 7% | 52C9E9F6 (antibody, V domains shown, Mouse hybridoma antibody purified from culture supernatant; also called TPBG antibody; lead antibody) VH: QVQLQQSGAELMKPGASVKLSCKATGYTFTGYWIEWIKQRPGHGLEWIGEILPGRGSTDYNEKFKGKATFTADTSSNTAYMQLSSLTTEDSAIYYCTRGRLDFTYWGQGTLVTVSA VL: DIQMTQTTSSLSASLGDRVTISCSASQGIRNYLNWYQQKPDGTVKLLIYYTSSLHSGVPSRFSGSGSGTDYSLTISNLEPEDIATYYCQQYSKVPWTFGGGTKLEIK
8 | 2.93 OD450nm | 0.11 OD450nm | 0% | 1% | 11% | 1% | 12% | 99E12C7H1 (antibody, V domains shown, Mouse hybridoma antibody purified from culture supernatant; also called TPBG antibody; lead antibody) VH: QIQLVQSGPELKKPGETVKISCKPSGYTFTAYGLSWVKQAPGQGFQWMGWINTYSGVPTYTDDFKGRFAFSLETSAGTASLQITNLKNEDTATYFCARSSIPPFEYWGPGTTLTVSS VL: SFVMTQSPKFLLVSVGDRVTITCKASQSVSNDVAWYQQKPGQPPRVLIYFASNRYTGVPDRFTGSGYGTDFTFTISTVQAEDLALYFCQQDYSSPWTFGGGTKLEIK
9 | 2.64 OD450nm | 0.1 OD450nm | 0% | 88% | 0% | 0% | 0% | 103E2E9C2 (antibody, V domains shown, Mouse hybridoma antibody purified from culture supernatant; also called TPBG antibody; lead antibody) VH: EVQLQQSGPVLVKPGASVKMSCEASGYSFIDYYMSWVKQSRGRSLEWIGVFNPYSGEIIYNQKFKGKATLTVDKSSSTAYMELSSLTSEDSGVYSCARLRISYYAIDYWGQGTSVAVSS VL: ENVLTQSPAIMSASPGEKVTMTCRATSSVSSGHFHWYQQKSGASPKVWIYSTSNLASGVPARFSGSGSGTSFSLTISSVEAEDVATYFCQQYSGYPLTFGGGTKLEIK
10 | 3.06 OD450nm | 0.16 OD450nm | 23% | 40% | 21% | 4% | 14% | 36A10D8B12 (antibody, V domains shown, Mouse hybridoma antibody purified from culture supernatant; also called TPBG antibody; lead antibody) VH: DVQLQESGPGMVKPSQSLSLTCTVTGYSITSGYDWHWIRHFPGNKLEWMGYISYSGNTNYNPSLKSRISITHNTSKNHFFLRLNSVTTEDTATYYCARGYGNWDAMDYWGQGTSVTVSS VL: DIVMTQSQKFMSTSVGDRVSVTCKASQIVDTNVAWYQQKPGQSPKALISSASYRYSGVPDRFTGSGSGTDFTLTISNVQSEDLAEYFCQQYNSYPLTFGAGTKLELT
